Results reported in patent publication US20060014927A1 (US Dept. of Health and Human Services, published 2006).
Bridges are numbered along the chain shown (N, C = ends). [ ]: non-standard residue; d: D form. Gla = N[C@@H](CC(C(=O)O)C(=O)O)C(=O)O; Aad = N[C@@H](CCCC(=O)O)C(=O)O

Assays:
[1] = biological target: T1, recombinant GST-Grb2 SH2 protein (UniProt P62993 60-152); test: comparison with the Glu1 analogue as reference; assay not named in the sentence (Biacore competition of Example 7 understood)
T1 construct: not shown: glutathione S-transferase (GST) fusion partner
T1 sequence (P62993 60-152): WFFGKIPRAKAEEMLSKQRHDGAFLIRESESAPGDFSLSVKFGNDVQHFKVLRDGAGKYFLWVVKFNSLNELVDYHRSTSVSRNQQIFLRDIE
Procedure: (§1) The competitive binding affinity of the present inventive compounds was assessed using Biacore Surface Plasmon Resonance (SPR) methods utilizing a Biacore 2000 instrument. […] Specifically, competitive binding assays were carried out at 5 μl/min flow rate, with GST-Grb2-SH2 (150-250 nM) and a cyclic peptide inhibitor (10 nM-2 mM) in phosphate-buffered saline (PBS), pH 7.4, containing 0.01% P-20 surfactant (Biacore, Inc., Piscataway, N.J.) for a total of 10 min. The change in response units (RU) at equilibrium was measured from the […] and the percent of control (no added peptide) was calculated. […] The results represent the mean value of at least two independent experiments.

[2] = biological target: T1, recombinant GST-Grb2 SH2 protein; test: Biacore SPR competition; inhibitor mixed with GST-Grb2 SH2 (150-250 nM), binding to immobilised biotin-SHC(pTyr-317)-9-mer as competitor
Procedure: as §1

Grb2 adapter protein = biological target: T2, Grb2 adapter protein (UniProt P62993 1-217); test: MDA-MB-453 lysates incubated with inhibitor; anti-Grb2 co-immunoprecipitation, anti-pTyr Western blot; p185erbB-2 as competitor
T2 construct: Endogenous protein in cell lysates or whole cells
T2 sequence (P62993 whole entry): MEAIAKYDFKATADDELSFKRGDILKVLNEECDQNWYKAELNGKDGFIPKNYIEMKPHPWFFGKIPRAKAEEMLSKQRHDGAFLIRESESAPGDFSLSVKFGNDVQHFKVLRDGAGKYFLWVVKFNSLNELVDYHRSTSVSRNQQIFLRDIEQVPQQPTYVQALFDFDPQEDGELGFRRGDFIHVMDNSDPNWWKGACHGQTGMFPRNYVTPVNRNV
Procedure: Cell lysates were prepared from the serum-treated erbB-2-overexpressing breast cancer cell line MDA-MB-453 using 1% Triton X-100 in PBS containing 0.2 mM NaVO₄. Lysates were incubated with the present inventive cyclic peptide inhibitors specified in Example 1 and Example 12, at concentrations of 0.1, 0.4, 2, 10 and 50 μM. No inhibitor was used as a control. […] Grb2 and associated Grb2-binding proteins were immunoprecipitated from each lysate (500 μg) with anti-Grb2 antibodies and collected using protein A Sepharose using methods previously described. Immunoprecipitated proteins were separated by SDS-PAGE on 8-16% gradient gels (Novex). pTyr-containing proteins were detected by Western blotting using anti-phosphotyrosine antibodies (Upstate Biotechnology Inc.). Previous experiments have shown that a major tyrosine phosphorylated protein in MDA-MB-453 cells is p185^erbB-2, which is overexpressed as a consequence of gene amplification. […] A dose-dependent inhibition of the p185^erbB-2 receptor association with the Grb2 adapter protein was observed.

| Binder | fold improvement of binding efficacy over Glu^1 [1] [fold] | IC50 [2] [nM] | IC50 (Grb2 adapter protein) [nM] |
| --- | --- | --- | --- |
| {CH2CO}-[Aad]LYENVGMYC-NH2 (thioether N-10, Synthetic thioether-cyclised, non-phosphorylated peptide) [cyclo(CH2CO-Adi1-Leu2-Tyr3-Glu4-Asn5-Val6-Gly7-Met8-Tyr9-Cys)-amide] | 6 | 3450 | – |
| {CH2CO}-[Aad]LY[Aad]NVGMYC-NH2 (thioether N-10, Synthetic thioether-cyclised, non-phosphorylated peptide) [cyclo(CH2CO-Adi1-Leu2-Tyr3-Adi4-Asn5-Val6-Gly7-Met8-Tyr9-Cys)-amide] | – | 3050 | – |
| {CH2CO}-[Gla]LYENVGMYCAAVALLPAVLLALLAP-NH2 (thioether N-10; not fully specified; printed as cyclo(CH2CO-Gla1-Leu2-Tyr3-Glu4-Asn5-Val6-Gly7-Met8-Tyr9-Cys)-NH-Ala-Ala-Val-Ala-Leu-Leu-Pro-Ala-Val-Leu-Leu-Ala-Leu-Leu-Ala-Pro) | – | – | 2000 |
| {CH2CO}-[Gla]LYENVGMYC-NH2 (thioether N-10; SMILES CSCC[C@@H]1NC(=O)CNC(=O)[C@H](C(C)C)NC(=O)[C@H](CC(N)=O)NC(=O)[C@H](CCC(=O)O)NC(=O)[C@H](Cc2ccc(O)cc2)NC(=O)[C@H](CC(C)C)NC(=O)[C@H](CC(C(=O)O)C(=O)O)NC(=O)CSC[C@@H](C(N)=O)NC(=O)[C@H](Cc2ccc(O)cc2)NC1=O, Synthetic thioether-cyclised, non-phosphorylated peptide (L = S)) [cyclo(CH2CO-Gla1-Leu2-Tyr3-Glu4-Asn5-Val6-Gly7-Met8-Tyr9-Cys)-amide] | 31 | 640 | 2000 |
